Drawing on PMC9967645, “OAT3 Participates in Drug–Drug Interaction between Bentysrepinine and Entecavir through Interactions with M8—A Metabolite of Bentysrepinine—In Rats and Humans In Vitro” (Molecules, 2023), this text covers Km and Vmax for one protein.

Substrate in this series: CN(C)CCOc1ccc(CC(NC(=O)c2ccccc2)C(=O)O)cc1
Kind of series: cells, lysate or membranes named. The settings on record: other: hOAT3-HEK293 cells, Eadie–Hofstee plot, 2 to 1000 µM, 5 min; pH 7.4.

Procedure: The hOAT1-HEK293, hOAT3-HEK293 and mock cells were cultured in Dulbecco modified Eagle medium (DMEM) containing 10% fetal bovine serum (FBS) and 1% penicillin/streptomycin in an atmosphere of 5% CO2 air at 37 °C. The HEK293 cells were plated on 24-well plates at a density of 5 × 10^5 cells/well. […] Uptake assay was initiated by adding 1 mL of the transporter buffer containing Y101, M8, ETV or probe substrate. Following incubation with gentle shaking, the uptake was terminated at designated time by removing the transporter buffer and washing cells three times with 1 mL of ice-cold HBSS. Next, substrates of Y101, M8, ETV, PAH and ES in cell monolayer were released by lysing the cells with 0.3 mL of 0.1% Triton X-100 for 2 h and determined by liquid chromatography–tandem mass spectrometry (LC–MS/MS). In the time-course uptake assay, Y101 (2.0 µM) and M8 (10 µM) in the presence or absence of PRO (100 µM) were measured in hOAT1-HEK293, hOAT3-HEK293 and mock cells. The concentration-dependent uptake of M8 was determined in hOAT3-HEK293 cells, and incubation time (5 min) was optimized. […] The uptake of ETV (10 µM) with or without Y101 or M8 was also measured in hOAT1-HEK293 and hOAT3-HEK293 cells, respectively. […] Protein concentrations were measured by the bicinchoninic acid procedure (Solarbio, Beijing, China) using bovine serum albumin as the standard. […]

B1: hOAT3 (Homo sapiens) (protein)
chain: MTFSEILDRVGSMGHFQFLHVAILGLPILNMANHNLLQIFTAATPVHHCRPPHNASTGPWVLPMGPNGKPERCLRFVHPPNASLPNDTQRAMEPCLDGWVYNSTKDSIVTEWDLVCNSNKLKEMAQSIFMAGILIGGLVLGDLSDRFGRRPILTCSYLLLAASGSGAAFSPTFPIYMVFRFLCGFGISGITLSTVILNVEWVPTRMRAIMSTALGYCYTFGQFILPGLAYAIPQWRWLQLTVSIPFFVFFLSSWWTPESIRWLVLSGKSSKALKILRRVAVFNGKKEEGERLSLEELKLNLQKEISLAKAKYTASDLFRIPMLRRMTFCLSLAWFATGFAYYSLAMGVEEFGVNLYILQIIFGGVDVPAKFITILSLSYLGRHTTQAAALLLAGGAILALTFVPLDLQTVRTVLAVFGKGCLSSSFSCLFLYTSELYPTVIRQTGMGVSNLWTRVGSMVSPLVKITGEVQPFIPNIIYGITALLGGSAALFLPETLNQPLPETIEDLENWSLRAKKPKQEPEVEKASQRIPLQPHGPGLGSS
Consider B1, for which the Km was 367 µM and the Vmax is reported as 414 pmol/min/mg protein.
